B1: Platelet-activating factor acetylhydrolase IB subunit beta (Mus musculus), P63005 (parent)
chain: MVLSQRQRDELNRAIADYLRSNGYEEAYSVFKKEAELDMNEELDKKYAGLLEKKWTSVIRLQKKVMELESKLNEAKEEFTSGGPLGQKRDPKEWIPRPPEKYALSGHRSPVTRVIFHPVFSVMVSASEDATIKVWDYETGDFERTLKGHTDSVQDISFDHSGKLLASCSADMTIKLWDFQGFECIRTMHGHDHNVSSVAIMPNGDHIVSASRDKTIKMWEVQTGYCVKTFTGHREWVRMVRPNQDGTLIASCSNDQTVRVWVVATKECKAELREHEHVVECISWAPESSYSSISEATGSETKKSGKPGPFLLSGSRDKTIKMWDVSTGMCLMTLVGHDNWVRGVLFHSGGKFILSCADDKTLRVWDYKNKRCMKTLNAHEHFVTSLDFHKTAPYVVTGSVDQTVKVWECR
partner: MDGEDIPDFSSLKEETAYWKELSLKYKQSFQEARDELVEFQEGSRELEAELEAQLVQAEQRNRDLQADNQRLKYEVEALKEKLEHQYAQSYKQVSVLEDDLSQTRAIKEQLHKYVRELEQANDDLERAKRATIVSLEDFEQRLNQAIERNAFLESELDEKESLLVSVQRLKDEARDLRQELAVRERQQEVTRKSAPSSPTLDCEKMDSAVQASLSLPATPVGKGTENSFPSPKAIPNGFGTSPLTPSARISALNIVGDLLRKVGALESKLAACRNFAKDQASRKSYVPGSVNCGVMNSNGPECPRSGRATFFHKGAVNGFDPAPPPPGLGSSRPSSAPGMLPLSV

Variants of: B1
Conditions: with ndel1_mouse Ndel1, Q9ERR1

Variant | effect of a mutation on the interaction
MVLSQRQRDELNRAIADYLRSNGYEEAYSVFKKEAELDMNEELDKKYAGLLEKKWTSVIRLQKKVMELESKLNEAKEEFTSGGPLGQKRDPKEWIPRPPEKYALSGHRSPVTRVIFHPVFSVMVSASEDATIKVWDYETGDFERTLKGRTDSVQDISFDHSGKLLASCSADMTIKLWDFQGFECIRTMHGHDHNVSSVAIMPNGDHIVSASRDKTIKMWEVQTGYCVKTFTGHREWVRMVRPNQDGTLIASCSNDQTVRVWVVATKECKAELREHEHVVECISWAPESSYSSISEATGSETKKSGKPGPFLLSGSRDKTIKMWDVSTGMCLMTLVGHDNWVRGVLFHSGGKFILSCADDKTLRVWDYKNKRCMKTLNAHEHFVTSLDFHKTAPYVVTGSVDQTVKVWECR [H149R] | disrupting interaction
MVLSQRQRDELNRAIADYLRSNGYEEAYSVFKKEAELDMNEELDKKYAGLLEKKWTSVIRLQKKVMELESKLNEAKEEFTSGGPLGQKRDPKEWIPRPPEKYALSGHRSPVTRVIFHPVFSVMVSASEDATIKVWDYETGDFERTLKGHTDSVQDISFDHSGKLLASCPADMTIKLWDFQGFECIRTMHGHDHNVSSVAIMPNGDHIVSASRDKTIKMWEVQTGYCVKTFTGHREWVRMVRPNQDGTLIASCSNDQTVRVWVVATKECKAELREHEHVVECISWAPESSYSSISEATGSETKKSGKPGPFLLSGSRDKTIKMWDVSTGMCLMTLVGHDNWVRGVLFHSGGKFILSCADDKTLRVWDYKNKRCMKTLNAHEHFVTSLDFHKTAPYVVTGSVDQTVKVWECR [S169P] | disrupting interaction
MVLSQRQRDELNRAIADYLRSNGYEEAYSVFKKEAELDMNEELDKKYAGLLEKKWTSVIRLQKKVMELESKLNEAKEEFTSGGPLGQKRDPKEWIPRPPEKYALSGHRSPVTRVIFHPVFSVMVSASEDATIKVWDYETGDFERTLKGHTDWVQDISFDHSGKLLASCSADMTIKLWDFQGFECIRTMHGHDHNVSSVAIMPNGDHIVSASRDKTIKMWEVQTGYCVKTFTGHREWVRMVRPNQDGTLIASCSNDQTVRVWVVATKECKAELREHEHVVECISWAPESSYSSISEATGSETKKSGKPGPFLLSGSRDKTIKMWDVSTGMCLMTLVGHDNWVRGVLFHSGGKFILSCADDKTLRVWDYKNKRCMKTLNAHEHFVTSLDFHKTAPYVVTGSVDQTVKVWECR [S152W] | disrupting interaction

Source: IntAct's records for PubMed 11231056
